Earlier results on two substances are cited in patent publication US10753947B2, “Methods for screening voltage-gated proteins” (D.E. Shaw Research, LLC, priority 2012, dated 2020).

Data set [1] deals with Kv1.1 (Homo sapiens, UniProt Q09470). The note with it: Table 5; read-out: IC50, channel Kv1.1; cited from earlier work.
For data set [2], the target named is Shaker (Drosophila melanogaster, UniProt P08510, DUP563-563/L584V/Q583H). The note with it: Table 5; read-out: IC50, channel Shaker; cited from earlier work.
Sequence of Shaker (P08510 with tags, fused parts or gaps DUP563-563/Q583H/L584V): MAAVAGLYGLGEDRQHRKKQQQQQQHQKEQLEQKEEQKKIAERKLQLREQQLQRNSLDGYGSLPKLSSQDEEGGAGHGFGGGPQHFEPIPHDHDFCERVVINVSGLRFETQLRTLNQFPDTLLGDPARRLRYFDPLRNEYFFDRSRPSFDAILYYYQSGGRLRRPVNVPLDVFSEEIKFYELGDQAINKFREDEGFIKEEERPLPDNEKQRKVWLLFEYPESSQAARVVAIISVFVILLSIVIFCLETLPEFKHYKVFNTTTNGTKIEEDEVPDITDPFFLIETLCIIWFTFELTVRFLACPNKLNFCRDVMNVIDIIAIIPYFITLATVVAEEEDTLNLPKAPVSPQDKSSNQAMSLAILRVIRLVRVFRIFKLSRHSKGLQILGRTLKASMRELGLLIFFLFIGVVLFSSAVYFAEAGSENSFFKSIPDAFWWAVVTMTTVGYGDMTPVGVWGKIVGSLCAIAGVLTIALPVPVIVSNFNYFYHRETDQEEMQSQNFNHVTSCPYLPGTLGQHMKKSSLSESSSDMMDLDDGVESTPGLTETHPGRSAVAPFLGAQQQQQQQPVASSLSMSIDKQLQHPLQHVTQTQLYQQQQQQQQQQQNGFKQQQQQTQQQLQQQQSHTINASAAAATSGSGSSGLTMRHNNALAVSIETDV
The target of data set [3] is T1, Kv2.1 T359S K360G A366D S367A I383M Y384T K386V (Homo sapiens, UniProt Q14721, A366D/I383M/K360G/K386V/S367A/T359S/Y384T).
T1 sequence (Q14721 1-858 T359S/K360G/A366D/S367A/I383M/Y384T/K386V): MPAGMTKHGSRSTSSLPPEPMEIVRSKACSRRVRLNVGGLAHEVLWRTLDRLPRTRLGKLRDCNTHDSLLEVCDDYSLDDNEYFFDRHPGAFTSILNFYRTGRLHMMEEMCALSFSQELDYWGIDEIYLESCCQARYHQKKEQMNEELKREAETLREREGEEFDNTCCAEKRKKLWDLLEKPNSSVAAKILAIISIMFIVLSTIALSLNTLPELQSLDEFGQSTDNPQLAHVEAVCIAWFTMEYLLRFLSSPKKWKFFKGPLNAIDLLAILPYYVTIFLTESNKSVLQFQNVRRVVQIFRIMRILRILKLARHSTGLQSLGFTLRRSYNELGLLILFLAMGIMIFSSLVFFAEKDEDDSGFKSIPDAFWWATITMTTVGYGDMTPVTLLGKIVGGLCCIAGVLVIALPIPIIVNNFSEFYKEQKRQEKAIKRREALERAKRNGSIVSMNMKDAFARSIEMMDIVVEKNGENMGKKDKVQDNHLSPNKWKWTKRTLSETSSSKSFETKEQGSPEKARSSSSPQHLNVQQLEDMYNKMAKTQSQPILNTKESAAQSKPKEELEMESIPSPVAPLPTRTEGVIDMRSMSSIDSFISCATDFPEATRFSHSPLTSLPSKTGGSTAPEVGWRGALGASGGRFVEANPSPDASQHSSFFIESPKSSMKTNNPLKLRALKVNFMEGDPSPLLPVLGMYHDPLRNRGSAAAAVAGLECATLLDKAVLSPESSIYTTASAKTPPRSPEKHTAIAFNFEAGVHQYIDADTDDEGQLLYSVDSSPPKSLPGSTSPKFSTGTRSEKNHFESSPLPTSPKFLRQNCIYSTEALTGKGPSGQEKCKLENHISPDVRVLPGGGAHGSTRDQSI
The note with it: Table 5; read-out: IC50, channel Kv2.1 T359S K360G A366D S367A I383M Y384T K386V; cited from earlier work.

Data set [4] has as its target Kv1.2 (Homo sapiens, UniProt P16389). As to conditions: Table 5; result in words; cited from earlier work.
Data set [5] addresses T2, Kv2.2 (Homo sapiens, UniProt Q92953).
T2 sequence (Q92953 1-911): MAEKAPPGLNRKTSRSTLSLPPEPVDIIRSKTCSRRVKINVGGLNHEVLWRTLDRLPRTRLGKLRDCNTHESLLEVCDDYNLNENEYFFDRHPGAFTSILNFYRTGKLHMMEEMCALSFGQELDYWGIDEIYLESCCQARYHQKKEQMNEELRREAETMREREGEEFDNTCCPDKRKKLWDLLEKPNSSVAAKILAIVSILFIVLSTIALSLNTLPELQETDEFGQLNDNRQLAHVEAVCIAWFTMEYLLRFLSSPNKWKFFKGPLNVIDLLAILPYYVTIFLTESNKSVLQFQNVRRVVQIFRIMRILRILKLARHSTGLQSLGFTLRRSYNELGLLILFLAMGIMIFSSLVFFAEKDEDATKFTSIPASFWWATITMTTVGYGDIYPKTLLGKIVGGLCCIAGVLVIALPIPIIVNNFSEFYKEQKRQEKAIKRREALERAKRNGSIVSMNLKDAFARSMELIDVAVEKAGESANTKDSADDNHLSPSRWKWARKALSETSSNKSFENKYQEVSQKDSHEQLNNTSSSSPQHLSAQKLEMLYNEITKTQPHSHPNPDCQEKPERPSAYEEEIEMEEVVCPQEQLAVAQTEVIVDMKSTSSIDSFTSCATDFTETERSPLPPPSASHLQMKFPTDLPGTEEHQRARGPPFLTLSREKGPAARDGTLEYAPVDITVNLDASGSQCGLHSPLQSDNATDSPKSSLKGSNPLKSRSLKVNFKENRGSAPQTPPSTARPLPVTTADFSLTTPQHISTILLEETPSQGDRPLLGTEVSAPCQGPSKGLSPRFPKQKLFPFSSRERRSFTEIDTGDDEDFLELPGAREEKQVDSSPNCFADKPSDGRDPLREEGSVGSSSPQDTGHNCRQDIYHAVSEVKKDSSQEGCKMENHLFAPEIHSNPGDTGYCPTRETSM
As to conditions: Table 5; read-out: IC50, channel Kv2.2; cited from earlier work.

Sequence of Kv1.1 (Q09470 whole entry): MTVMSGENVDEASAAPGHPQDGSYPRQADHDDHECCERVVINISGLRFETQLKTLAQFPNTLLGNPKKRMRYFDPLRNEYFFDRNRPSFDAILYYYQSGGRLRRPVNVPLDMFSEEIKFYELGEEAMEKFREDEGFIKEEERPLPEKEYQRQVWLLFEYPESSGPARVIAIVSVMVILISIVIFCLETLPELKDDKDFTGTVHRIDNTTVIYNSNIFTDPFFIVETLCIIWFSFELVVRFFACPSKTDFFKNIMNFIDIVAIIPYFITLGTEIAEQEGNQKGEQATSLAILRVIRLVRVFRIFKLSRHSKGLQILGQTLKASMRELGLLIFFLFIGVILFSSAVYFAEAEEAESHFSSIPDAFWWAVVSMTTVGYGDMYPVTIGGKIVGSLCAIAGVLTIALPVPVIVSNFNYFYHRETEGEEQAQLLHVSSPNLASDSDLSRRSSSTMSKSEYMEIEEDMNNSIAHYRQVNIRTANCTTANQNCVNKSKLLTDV
Sequence of Kv1.2 (P16389 whole entry): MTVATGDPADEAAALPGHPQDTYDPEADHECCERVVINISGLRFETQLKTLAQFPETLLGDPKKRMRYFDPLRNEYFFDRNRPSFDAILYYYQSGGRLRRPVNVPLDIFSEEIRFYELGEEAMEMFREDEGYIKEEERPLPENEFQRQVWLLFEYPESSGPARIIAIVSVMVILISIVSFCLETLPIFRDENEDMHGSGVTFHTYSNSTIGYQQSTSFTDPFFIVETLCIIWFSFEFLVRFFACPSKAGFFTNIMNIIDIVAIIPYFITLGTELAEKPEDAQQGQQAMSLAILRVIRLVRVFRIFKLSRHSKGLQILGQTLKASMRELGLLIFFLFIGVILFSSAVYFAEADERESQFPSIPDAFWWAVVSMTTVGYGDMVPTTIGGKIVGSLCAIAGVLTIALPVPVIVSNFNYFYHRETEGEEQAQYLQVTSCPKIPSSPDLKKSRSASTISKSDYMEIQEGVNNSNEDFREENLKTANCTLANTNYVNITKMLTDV

As usually defined, the IC50 is the concentration needed to halve the response being measured. For “Agitotoxin-2 (GVPINVSCTGSPQCIKPCKDAGMRFGKCMNRKCHCTPK) [AgTx2]”, the results for the IC50 in data set [1], in data set [2] and in data set [3] were 0.044 nM, 0.64 nM and 0.007 nM, respectively.
For “Guangxitoxin (EGECGGFWWKCGSGKPACCPKYVCSPKWGLCNFPMP) [GxTx-1E]”, in data set [4], the “IC50, channel Kv1.2” value is on record as “No effect”. For the same substance, the IC50 in data set [5] was 2.6 nM; in data set [3], approximately 2 nM.
